From publication PMC4326527

Target: UAF1-mRFP (UniProt Q8TAF3)
Test: nuclear relocation assay
Settings: 293T cells co-transfected with UAF1-mRFP; at least 100 cells per slide; three independent experiments; parent: est. 10; read off a plot

Sequence of UniProt Q8TAF3 (Q8TAF3 whole entry): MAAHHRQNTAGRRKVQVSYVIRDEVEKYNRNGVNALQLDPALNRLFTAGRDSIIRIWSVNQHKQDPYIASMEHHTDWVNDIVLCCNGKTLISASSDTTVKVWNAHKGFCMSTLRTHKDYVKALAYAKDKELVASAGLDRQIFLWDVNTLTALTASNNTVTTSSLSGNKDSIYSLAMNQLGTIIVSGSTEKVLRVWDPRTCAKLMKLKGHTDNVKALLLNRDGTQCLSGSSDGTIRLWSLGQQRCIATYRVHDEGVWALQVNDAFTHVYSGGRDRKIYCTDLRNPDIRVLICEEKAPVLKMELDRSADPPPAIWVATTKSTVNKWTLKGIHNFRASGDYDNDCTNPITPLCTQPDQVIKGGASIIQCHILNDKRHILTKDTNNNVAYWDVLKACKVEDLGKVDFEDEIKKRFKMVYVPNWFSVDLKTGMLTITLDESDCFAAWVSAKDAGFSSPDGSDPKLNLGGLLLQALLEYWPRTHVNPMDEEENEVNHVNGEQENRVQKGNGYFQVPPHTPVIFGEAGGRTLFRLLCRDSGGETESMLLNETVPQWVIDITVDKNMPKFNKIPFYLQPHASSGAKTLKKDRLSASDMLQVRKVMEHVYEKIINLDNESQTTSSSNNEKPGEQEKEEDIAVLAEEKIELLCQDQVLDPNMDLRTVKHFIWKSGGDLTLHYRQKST

other: UAF1-mRFP N/C localization (% of cells), nuclear/cytoplasmic (N/C) class: 12 % of cells
Substance: YFP-USP1(del420-520) S313D
